Laboratory results reported in patent US20170049855A1 (NEW YORK UNIVERSITY, published 2017).
Values belong to the binder of their own block, whether it stands above or below them.

B1: Recombinant His-tag PGRN protein (recombinant human progranulin) (ligand)
chain: TRCPDGQFCPVACCLDPGGASYSCCRPLLDKWPTTLSRHLGGPCQVDAHCSAGHSCIFTVSGTSSCCPFPEAVACGDGHHCCPRGFHCSADGRSCFQRSGNNSVGAIQCPDSQFECPDFSTCCVMVDGSWGCCPMPQASCCEDRVHCCPHGAFCDLVHTRCITPTGTHPLAKKLPAQRTNRAVALSSSVMCPDARSRCPDGSTCCELPSGKYGCCPMPNATCCSDHLHCCPQDTVCDLIQSKCLSKENATTDLLTKLPAHTVGDVKCDMEVSCPDGYTCCRLQSGAWGCCPFTQAVCCEDHIHCCPAGFTCDTQKGTCEQGPHQVPWMEKAPAHLSLPDPQALKRDVPCDNVSSCPSSDTCCQLTSGEWGCCPIPEAVCCSDHQHCCPQGYTCVAEGQCQRGSEIVAGLEKMPARRASLSHPRDIGCDQHTSCPVGQTCCPSLGGSWACCQLPHAVCCEDRQHCCPAGYTCNVKARSCEKEVVSAQPATFLARSPHVGVKDVECGEGHFCHDNQTCCRDNRQGWACCPYRQGVCCADRRHCCPAGFRCAARGTKCLRREAPRWDAPLRDPALRQLL
notes: Coated on the plate in the solid phase assay; analyte (200 nM) in SPR; also called rPGRN; His-tagged PGRN; not shown: His tag
B2: Recombinant GBA (R&D Systems Cat. No. 7410-GH-010) (enzyme, UniProt P04062 40-536, looked up)
chain: ARPCIPKSFGYSSVVCVCNATYCDSFDPPTFPALGTFSRYESTRSGRRMELSMGPIQANHTGTGLLLTLQPEQKFQKVKGFGGAMTDAAALNILALSPPAQNLLLKSYFSEEGIGYNIIRVPMASCDFSIRTYTYADTPDDFQLHNFSLPEEDTKLKIPLIHRALQLAQRPVSLLASPWTSPTWLKTNGAVNGKGSLKGQPGDIYHQTWARYFVKFLDAYAEHKLQFWAVTAENEPSAGLLSGYPFQCLGFTPEHQRDFIARDLGPTLANSTHHNVRLLMLDDQRLLLPHWAKVVLTDPEAAKYVHGIAVHWYLDFLAPAKATLGETHRLFPNTMLFASEACVGSKFWEQSVRLGSWDRGMQYSHSIITNLLYHVVGWTDWNLALNPEGGPNWVRNFVDSPIIVDITKDTFYKQPMFYHLGHFSKFIPEGSQRVGLVASQKNDLDAVALMHPDGSAVVVVLNRSSKDVPLTIKDPAVGFLETISPGYSIHTYLWRRQ
modifications: biotin-labeled (EZ-Link Sulfo-NHS-LC-Biotin) in the solid phase binding assay only
notes: Bought protein; Immobilised on the COOH1 chip in SPR; also called glucocerebrosidase; beta-glucocerebrosidase

Columns and labels:
[1] = target: B2; assay: solid phase binding assay: PGRN coated at the concentration on the x axis (µg/ml), biotin-labeled GBA added, streptavidin-HRP, OD 450 nm
Experimental: (§1) The plate was washed with 0.1% tween/PBS five times and then blocked with 2% BSA/PBS solution. […] Wash with 0.1% tween/PBS, and coated with streptavidin-HRP (1:2000 dilution) solution for 1 hour. After washing add t h e substrate and stop the reaction with 100 μl 2M H₂SO₄. Read result at UV 450 nm in plate reader.

[2] = target: T1, Recombinant sortilin (R&D Systems Cat. No. 3154-ST-050) (UniProt Q99523 78-755); assay: SPR, SensiQ Pioneer, COOH1 chip, Sortilin immobilised, PGRN as analyte (data not shown)
T1 construct: Bought protein; Immobilised on channel 1 of the chip in SPR

[3] = target: B1; assay: SPR (SensiQ Pioneer), GBA immobilised, PGRN injected, running buffer pH 7.4
Experimental: (§2) All SPR experiments were done by SensiQ Technologies Inc. (Oklahoma City, Okla.) by using SensiQ Pioneer at a controlled analysis temperature of 25° C., and samples in the instrument sample racks were maintained at 18° C. The running buffer throughout the immobilization and the assay consisted of 10 mM HEPES, 150 mM NaCl, 0.005% Tween 20.
(§3) Data was analyzed using the QDat Analysis Software (SensiQ Technologies and BioLogic Software). All data were double referenced to a reference channel (channel 2) and buffer blanks. The average signal of the buffer blanks was used to subtract injection artifacts. Referenced SPR data from the analysis channels were model fit to ascertain ka, kd, and KD for the interactions.

[4] = target: B1; assay: SPR (SensiQ Pioneer), GBA immobilised, PGRN injected, running buffer pH 6.0
Experimental: as §2, §3

[5] = target: B1; assay: SPR (SensiQ Pioneer), GBA immobilised, PGRN injected, running buffer pH 5.5
Experimental: as §2, §3

[6] = target: B1; assay: SPR (SensiQ Pioneer), GBA immobilised, PGRN injected, running buffer pH 6.5
Experimental: as §2, §3

[7] = target: B1; assay: solid phase binding assay: PGRN coated at the concentration on the x axis (µg/ml), biotin-labeled LIMP2 added, streptavidin-HRP, OD 450 nm
Experimental: as §1

[8] = target: T2, mouse GBA (endogenous, lung tissue) (mouse, UniProt P17439 20-515); assay: co-immunoprecipitation from lung lysate of WT and PGRN KO mice, IP: GBA, IB: LIMP2
T2 construct: Endogenous protein precipitated or detected with anti-GBA antibody; also called glucocerebrosidase
T2 sequence (looked up): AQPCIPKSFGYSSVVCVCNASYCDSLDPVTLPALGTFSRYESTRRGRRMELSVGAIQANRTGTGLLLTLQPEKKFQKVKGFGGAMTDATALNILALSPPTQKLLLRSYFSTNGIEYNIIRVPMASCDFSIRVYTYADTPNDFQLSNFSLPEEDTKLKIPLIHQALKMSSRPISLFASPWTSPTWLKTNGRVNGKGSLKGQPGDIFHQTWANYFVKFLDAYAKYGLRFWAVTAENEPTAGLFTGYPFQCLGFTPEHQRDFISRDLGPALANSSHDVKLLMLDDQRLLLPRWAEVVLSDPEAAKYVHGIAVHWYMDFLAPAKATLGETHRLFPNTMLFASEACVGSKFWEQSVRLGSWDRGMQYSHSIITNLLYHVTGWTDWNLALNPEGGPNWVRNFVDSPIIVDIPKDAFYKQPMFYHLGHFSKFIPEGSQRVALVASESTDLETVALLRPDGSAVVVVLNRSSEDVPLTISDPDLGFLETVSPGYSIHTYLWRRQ

[9] = target: T3, mouse Sortilin (endogenous, lung tissue) (mouse, UniProt Q6PHU5 74-825); assay: co-immunoprecipitation from lung lysate of WT and PGRN KO mice, IP: Sortilin, IB: GLA
T3 construct: Endogenous protein in lung lysate
T3 sequence (Q6PHU5 74-825 limits assumed): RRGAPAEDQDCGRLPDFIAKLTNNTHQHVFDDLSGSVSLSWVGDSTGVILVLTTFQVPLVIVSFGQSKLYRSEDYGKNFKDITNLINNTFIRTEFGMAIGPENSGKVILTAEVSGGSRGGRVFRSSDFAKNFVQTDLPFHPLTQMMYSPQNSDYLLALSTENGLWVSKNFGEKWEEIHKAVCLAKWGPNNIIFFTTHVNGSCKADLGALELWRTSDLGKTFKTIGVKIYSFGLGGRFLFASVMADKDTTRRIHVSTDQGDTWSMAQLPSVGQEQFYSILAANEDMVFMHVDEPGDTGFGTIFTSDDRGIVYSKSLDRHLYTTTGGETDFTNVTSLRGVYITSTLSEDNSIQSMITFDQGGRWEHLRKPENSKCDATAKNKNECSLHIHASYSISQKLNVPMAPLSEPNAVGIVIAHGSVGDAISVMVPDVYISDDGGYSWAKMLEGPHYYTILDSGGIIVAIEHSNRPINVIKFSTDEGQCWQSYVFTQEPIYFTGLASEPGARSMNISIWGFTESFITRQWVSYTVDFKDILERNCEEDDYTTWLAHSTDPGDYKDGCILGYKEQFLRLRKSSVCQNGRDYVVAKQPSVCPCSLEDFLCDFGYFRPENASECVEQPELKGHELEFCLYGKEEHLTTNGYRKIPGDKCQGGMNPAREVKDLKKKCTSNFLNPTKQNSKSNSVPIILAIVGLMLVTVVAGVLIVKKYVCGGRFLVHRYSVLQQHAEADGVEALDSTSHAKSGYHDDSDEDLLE

Binder: B1
EC50 (read off the curve) [1]: ~1 µg/mL
Kd [2]: 3.67 nM

Binder: B2
Kd [3]: 0.71 nM
Kd [4]: 16.9 nM
Kd [5]: 55 nM
Kd [6]: 20.8 nM

binding result [7]: no binding (tested: 5 µg/ml)
B3: Recombinant LIMP2 (R&D Systems Cat. No. 1966-LM-050) (receptor, UniProt Q14108 27-432, looked up)
chain: RVFQKAVDQSIEKKIVLRNGTEAFDSWEKPPLPVYTQFYFFNVTNPEEILRGETPRVEEVGPYTYRELRNKANIQFGDNGTTISAVSNKAYVFERDQSVGDPKIDLIRTLNIPVLTVIEWSQVHFLREIIEAMLKAYQQKLFVTHTVDELLWGYKDEILSLIHVFRPDISPYFGLFYEKNGTNDGDYVFLTGEDSYLNFTKIVEWNGKTSLDWWITDKCNMINGTDGDSFHPLITKDEVLYVFPSDFCRSVYITFSDYESVQGLPAFRYKVPAEILANTSDNAGFCIPEGNCLGSGVLNVSICKNGAPIIMSFPHFYQADERFVSAIEGMHPNQEDHETFVDINPLTGIILKAAKRFQINIYVKKLDDFVETGDIRTMVFPVMYLNESVHIDKETASRLKSMINTT
modifications: biotin-labeled (EZ-Link Sulfo-NHS-LC-Biotin)
notes: Bought protein; also called Lysosomal integral membrane protein 2

binding result [8]: binds
B4: mouse LIMP2 (endogenous, lung tissue) (receptor, UniProt O35114 1-478, looked up)
chain: MGRCCFYTAGTLSLLLLVTSVTLLVARVFQKAVDQTIEKNMVLQNGTKVFNSWEKPPLPVYIQFYFFNVTNPEEILQGEIPLLEEVGPYTYRELRNKANIQFGENGTTISAVTNKAYVFERNQSVGDPNVDLIRTINIPLLTVVDLAQLTLLRELIEAMLKAYQQKLFVIHTVHELLWGYKDEILSLVHIFKPDVSPNFGLFYERNGTNDGEYVFLTGEDNYLNFSKIVEWNGKTSLDWWTTDTCNMINGTDGDSFHPLISKDEVLYLFPSDLCRSVHITFSSFENVEGLPAFRYKVPAEILANTSENAGFCIPEGNCMDSGVLNISICKNGAPIIMSFPHFYQADEKFVSAIKGMHPNKEEHESFVDINPLTGIILRGAKRFQINTYVRKLDDFVETGDIRTMVFPVMYLNESVLIDKETANQLKSVINTTLVVTNIPYIIMALGVFFGLVFTWLACRGQGSMDEGTADERAPLIRT
notes: Endogenous protein in lung lysate; also called Lysosomal integral membrane protein 2

binding result [9]: binds
B5: mouse alpha-galactosidase A (endogenous, lung tissue) (enzyme, UniProt P51569 32-419, looked up)
chain: LDNGLARTPTMGWLHWERFMCNLDCQEEPDACISEQLFMQMAELMVSDGWRDAGYDYLCIDDCWMAPERDSKGRLQADPQRFPSGIKHLANYVHSKGLKLGIYADVGNKTCAGFPGSFGSYDIDAQTFADWGVDLLKFDGCHCDSVVSLENGYKYMALALNRTGRSIVYSCEWPLYLRPFHKPNYTDIQYYCNHWRNFDDVYDSWESIKNILSWTVVYQKEIVEVAGPGSWNDPDMLVIGNFGLSWDQQVTQMALWAIMAAPLLMSNDLRQISSQAKALLQNKDVIAINQDPLGKQGYCFRKENHIEVWERPLSNLAWAVAVRNLQEIGGPCPYTIQISSLGRGLACNPGCIITQLLPEKVHLGFYEWTLTLKTRVNPSGTVLFRLER
notes: Endogenous protein in lung lysate; also called GLA; alpha-GLA
